Drawing on the Human Domainome abundance scans (Beltran et al. 2025), this text covers abundance fitness for 49 variants.

B1: Homeobox protein SIX3, residues 212 to 262; numbered along this chain, O95343 (parent)
chain: CFKERTRSLLREWYLQDPYPNPSKKRELAQATGLTPTQVGNWFKNRRQRDR

± gives the uncertainty stated by the source.

In the data set the parent is B1. As to the kind of experiment: abundance fitness (aPCA) (normalised: wild type 0, dead -1); higher = more abundant; growth selection in yeast, the domain comes from the species named. The conditions noted are these: Homo sapiens.
Take CQKERTRSLLREWYLQDPYPNPSKKRELAQATGLTPTQVGNWFKNRRQRDR [F2Q]: the abundance fitness is -0.178 ± 0.095. The result for CDKERTRSLLREWYLQDPYPNPSKKRELAQATGLTPTQVGNWFKNRRQRDR [F2D] reads 0.361 ± 0.076; that for CNKERTRSLLREWYLQDPYPNPSKKRELAQATGLTPTQVGNWFKNRRQRDR [F2N], 0.149 ± 0.11; that for CCKERTRSLLREWYLQDPYPNPSKKRELAQATGLTPTQVGNWFKNRRQRDR [F2C], -0.315 ± 0.092. As to CPKERTRSLLREWYLQDPYPNPSKKRELAQATGLTPTQVGNWFKNRRQRDR [F2P], the abundance fitness was -0.258 ± 0.044. For the variant CGKERTRSLLREWYLQDPYPNPSKKRELAQATGLTPTQVGNWFKNRRQRDR [F2G], the abundance fitness is -0.04 ± 0.045. As to CRKERTRSLLREWYLQDPYPNPSKKRELAQATGLTPTQVGNWFKNRRQRDR [F2R], the abundance fitness was -0.324 ± 0.048. The result for CTKERTRSLLREWYLQDPYPNPSKKRELAQATGLTPTQVGNWFKNRRQRDR [F2T] reads -0.106 ± 0.074; that for CAKERTRSLLREWYLQDPYPNPSKKRELAQATGLTPTQVGNWFKNRRQRDR [F2A], -0.183 ± 0.06.

Take CYKERTRSLLREWYLQDPYPNPSKKRELAQATGLTPTQVGNWFKNRRQRDR [F2Y]: the abundance fitness worked out at 0.079 ± 0.093. Next, CMKERTRSLLREWYLQDPYPNPSKKRELAQATGLTPTQVGNWFKNRRQRDR [F2M]: 0.253 ± 0.089; CWKERTRSLLREWYLQDPYPNPSKKRELAQATGLTPTQVGNWFKNRRQRDR [F2W]: -0.538 ± 0.1.

Take CHKERTRSLLREWYLQDPYPNPSKKRELAQATGLTPTQVGNWFKNRRQRDR [F2H]: the abundance fitness is -0.083 ± 0.052. As to CKKERTRSLLREWYLQDPYPNPSKKRELAQATGLTPTQVGNWFKNRRQRDR [F2K], the abundance fitness was 0.009 ± 0.1. The result for CIKERTRSLLREWYLQDPYPNPSKKRELAQATGLTPTQVGNWFKNRRQRDR [F2I] reads -0.047 ± 0.1. Take CLKERTRSLLREWYLQDPYPNPSKKRELAQATGLTPTQVGNWFKNRRQRDR [F2L]: the abundance fitness is -0.022 ± 0.067. The result for CEKERTRSLLREWYLQDPYPNPSKKRELAQATGLTPTQVGNWFKNRRQRDR [F2E] reads 0.037 ± 0.062; that for EFKERTRSLLREWYLQDPYPNPSKKRELAQATGLTPTQVGNWFKNRRQRDR [C1E], -0.342 ± 0.49. Next, WFKERTRSLLREWYLQDPYPNPSKKRELAQATGLTPTQVGNWFKNRRQRDR [C1W]: -0.251 ± 0.16; IFKERTRSLLREWYLQDPYPNPSKKRELAQATGLTPTQVGNWFKNRRQRDR [C1I]: 0.874 ± 0.28; GFKERTRSLLREWYLQDPYPNPSKKRELAQATGLTPTQVGNWFKNRRQRDR [C1G]: -0.359 ± 0.14.

Regarding SFKERTRSLLREWYLQDPYPNPSKKRELAQATGLTPTQVGNWFKNRRQRDR [C1S], the abundance fitness is -0.121 ± 0.18.

VFKERTRSLLREWYLQDPYPNPSKKRELAQATGLTPTQVGNWFKNRRQRDR [C1V]: the abundance fitness was -0.402 ± 0.3.

Take FFKERTRSLLREWYLQDPYPNPSKKRELAQATGLTPTQVGNWFKNRRQRDR [C1F]: the abundance fitness came out at 0.499 ± 0.16. Next, CFVERTRSLLREWYLQDPYPNPSKKRELAQATGLTPTQVGNWFKNRRQRDR [K3V]: -0.655 ± 0.12; CFMERTRSLLREWYLQDPYPNPSKKRELAQATGLTPTQVGNWFKNRRQRDR [K3M]: -0.624 ± 0.2.

Regarding CFNERTRSLLREWYLQDPYPNPSKKRELAQATGLTPTQVGNWFKNRRQRDR [K3N], the abundance fitness worked out at 0.165 ± 0.069.

Take CFTERTRSLLREWYLQDPYPNPSKKRELAQATGLTPTQVGNWFKNRRQRDR [K3T]: the abundance fitness is -0.134 ± 0.11. The result for CFAERTRSLLREWYLQDPYPNPSKKRELAQATGLTPTQVGNWFKNRRQRDR [K3A] reads -0.3 ± 0.037. CFQERTRSLLREWYLQDPYPNPSKKRELAQATGLTPTQVGNWFKNRRQRDR [K3Q]: the abundance fitness was -0.216 ± 0.2. As for CFIERTRSLLREWYLQDPYPNPSKKRELAQATGLTPTQVGNWFKNRRQRDR [K3I], the abundance fitness is -0.362 ± 0.18.

Consider CFPERTRSLLREWYLQDPYPNPSKKRELAQATGLTPTQVGNWFKNRRQRDR [K3P], for which the abundance fitness is -0.39 ± 0.071. Next, CFEERTRSLLREWYLQDPYPNPSKKRELAQATGLTPTQVGNWFKNRRQRDR [K3E]: 0.074 ± 0.062; CFYERTRSLLREWYLQDPYPNPSKKRELAQATGLTPTQVGNWFKNRRQRDR [K3Y]: -0.262 ± 0.095; CFSERTRSLLREWYLQDPYPNPSKKRELAQATGLTPTQVGNWFKNRRQRDR [K3S]: -0.106 ± 0.1. Next, CFHERTRSLLREWYLQDPYPNPSKKRELAQATGLTPTQVGNWFKNRRQRDR [K3H]: -0.72 ± 0.4; CFDERTRSLLREWYLQDPYPNPSKKRELAQATGLTPTQVGNWFKNRRQRDR [K3D]: -0.037 ± 0.068. Next, CFCERTRSLLREWYLQDPYPNPSKKRELAQATGLTPTQVGNWFKNRRQRDR [K3C]: 0.158 ± 0.12.

Regarding CFRERTRSLLREWYLQDPYPNPSKKRELAQATGLTPTQVGNWFKNRRQRDR [K3R], the abundance fitness was -0.275 ± 0.047.

Consider CFKERNRSLLREWYLQDPYPNPSKKRELAQATGLTPTQVGNWFKNRRQRDR [T6N], for which the abundance fitness was -0.409 ± 0.21. Next, CFKERARSLLREWYLQDPYPNPSKKRELAQATGLTPTQVGNWFKNRRQRDR [T6A]: -0.268 ± 0.078; CFKERGRSLLREWYLQDPYPNPSKKRELAQATGLTPTQVGNWFKNRRQRDR [T6G]: -0.192 ± 0.082. Take CFKERQRSLLREWYLQDPYPNPSKKRELAQATGLTPTQVGNWFKNRRQRDR [T6Q]: the abundance fitness was -0.067 ± 0.21. As for CFKERIRSLLREWYLQDPYPNPSKKRELAQATGLTPTQVGNWFKNRRQRDR [T6I], the abundance fitness was 0.288 ± 0.088.

For the variant CFKERKRSLLREWYLQDPYPNPSKKRELAQATGLTPTQVGNWFKNRRQRDR [T6K], the abundance fitness was -0.513 ± 0.26. Regarding CFKERLRSLLREWYLQDPYPNPSKKRELAQATGLTPTQVGNWFKNRRQRDR [T6L], the abundance fitness is -0.16 ± 0.059.

Consider CFKERFRSLLREWYLQDPYPNPSKKRELAQATGLTPTQVGNWFKNRRQRDR [T6F], for which the abundance fitness is -0.504 ± 0.059.

Consider CFKERMRSLLREWYLQDPYPNPSKKRELAQATGLTPTQVGNWFKNRRQRDR [T6M], for which the abundance fitness is -0.115 ± 0.049. Next, CFKERHRSLLREWYLQDPYPNPSKKRELAQATGLTPTQVGNWFKNRRQRDR [T6H]: 0.086 ± 0.31.
